Columns and labels:
[1] = biological target: LAT-FYFF (monovalent LAT1Y, residue 48-233), phosphorylated (UniProt O43561); assay: ITC
[2] = biological target: LAT-FYFF (monovalent LAT1Y, residue 48-233), phosphorylated (UniProt O43561); assay: single-molecule dwell time analysis

Kd [1]: 463 nM
dH [1]: -15 kcal/mol
koff [2]: 3.4 s⁻¹
relative on-rate (against LAT-FFFY:Grb2 = 1) [2]: 1.25
Substance: Grb2-Alexa Fluor 647 (from UniProt P62993 1-217) (natural protein)

From PMC5761276
